Assay results reported in PMC3861647.

Target: MBP-RU678 (human)
Assay: ITC; MicroCal ITC200, 25 °C, HBS (10 mM HEPES, 150 mM NaCl, pH 7.4); cell: 50 μM MBP-RU678; syringe: 0.5 mM Srr1-BR or Srr2-BR; single binding mode

Srr2-BR (untagged recombinant binding region of Srr2) (domain or fragment)
Kd: 12 µM | stoichiometry N: 1

Srr1-BR (untagged recombinant binding region of Srr1) (domain or fragment)
Kd: 69 µM | stoichiometry N: 1
